Experiment [1] has as its target T1, human CD3 epsilon (Acro Cat #CDE-H5223) (human, UniProt P07766 23-126).
T1 construct: Bought recombinant protein; also called rhCD3E
The experiment is described as follows: SPR (Biacore), antibody captured, human CD3 epsilon analyte. Here is the method: (§1) Anti-Fab or anti-Fc polyclonal antibodies were immobilized onto a CM5 chip (GE Life Sciences) using amine coupling chemistry (from Amine Coupling Kit, GE Life Sciences). The immobilization steps were carried out at a flow rate of 25 μl/min in 1×HBS-EP+ buffer (GE Life Sciences; 10× Stock diluted before use). The sensor surfaces were activated for 7 min with a mixture of NHS (0.05 M) and EDC (0.2 M). The Anti-Fab or Anti-Fc antibodies were injected over all 4 flow cells at a concentration of 25 μg/mL in 10 mM sodium acetate, pH 4.5, for 7 min. Ethanolamine (1 M, pH 8.5) was injected for 7 min to block any remaining activated groups.
(§2) Off-rate and kinetic binding experiments were performed at 25° C. using 1×HBS-EP+ buffer. Test and control antibodies were injected over the anti-Fab or anti-Fc surface at concentrations of 5-10 μg/mL for 12 seconds at a flow rate of 10 μL/min on flow cells 2, 3 and 4, followed by a buffer wash for 30 seconds at the same flow rate. […] After capturing ligand (antibody) on the anti-Fc or anti-Fab surface, the analyte (human CD3 epsilon, Acro Cat #CDE-H5223) was bound for 180 seconds, followed by a 600 second dissociation phase at a flow rate of 50 μL/min. Between each ligand capture and analyte binding cycle, regeneration was carried out using two injections of 10 mM Glycine pH 2.0 for 30 seconds at 30 μL/min, followed by a 30 second buffer wash step.
(§3) The data was fit with the Biacore T200 Evaluation software, using a 1-1 Langmuir binding model. KD (affinity, nM) was determined as a ratio of the kinetic rate constants calculated from the fits of the association and dissociation phases.

The target of experiment [2] is T2, human CD3 on T-cell lines (CD3-expressing Jurkat cells; HUT78 cells) (human, UniProt P07766 23-207).
T2 construct: On cells it stands in the CD3/TCR complex
Nature of the experiment: flow cytometry, HUT78 cells. On the technique in general: In flow cytometry, cells or beads pass a laser one at a time.

The target of experiment [3] is T3, cynomolgus CD3 epsilon (cynomolgus monkey, UniProt Q95LI5 22-117, limits assumed).
T3 construct: Recombinant protein; also called cyno CD3E
T3 sequence: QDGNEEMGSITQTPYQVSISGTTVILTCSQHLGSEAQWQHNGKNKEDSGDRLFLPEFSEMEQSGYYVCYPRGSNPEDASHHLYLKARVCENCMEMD
The experiment is described as follows: SPR (Biacore), antibody captured, cynomolgus CD3 epsilon analyte.

For experiment [4], the target named is T2, human CD3 on T-cell lines …. The experiment is described as follows: flow cytometry, HUT78 cells. This is another data set of the same source.
Experiment [5] deals with T3, cynomolgus CD3 epsilon. Nature of the experiment: SPR (Biacore), antibody captured, cynomolgus CD3 epsilon analyte. The source holds these as a separate data set.
The target of experiment [6] is T1, human CD3 epsilon (Acro Cat #CDE-H5223). Nature of the experiment: SPR (Biacore), antibody captured, human CD3 epsilon analyte. How it is done: as §1, §2, §3
The source holds these as a separate data set.

In experiment [7] the target is T2, human CD3 on T-cell lines …. Nature of the experiment: flow cytometry, HUT78 cells. This is another data set of the same source.
The target of experiment [8] is T1, human CD3 epsilon (Acro Cat #CDE-H5223). The experiment is described as follows: SPR (Biacore), antibody captured, human CD3 epsilon analyte. Here is the method: as §1, §2, §3
This is another data set of the same source.

Like-named read-outs stand apart in the source and are kept apart here.

Consider 10 molecules from patent publication US20240124585A1 (SUTRO BIOPHARMA, published 2024).

T1 sequence (P07766 23-126 limits assumed): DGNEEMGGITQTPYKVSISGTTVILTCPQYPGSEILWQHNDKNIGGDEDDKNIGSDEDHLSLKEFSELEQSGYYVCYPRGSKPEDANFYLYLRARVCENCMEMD
T2 sequence (P07766 23-207 limits assumed): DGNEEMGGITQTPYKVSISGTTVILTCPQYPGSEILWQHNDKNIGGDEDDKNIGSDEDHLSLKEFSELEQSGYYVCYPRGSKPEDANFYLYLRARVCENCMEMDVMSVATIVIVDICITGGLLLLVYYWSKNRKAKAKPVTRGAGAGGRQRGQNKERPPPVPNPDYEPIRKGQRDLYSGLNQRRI

B1: 2037-B10-Lc8 (antibody)
heavy: not shown
light: DTQVTQSPSLSASVGDRVTITCGSSTGAVTSGYYPNWLQQKPGQAPRGLIGGTKFLAPGVPSRFSGSLSGGKATLTISSLQPEDFATYYCALWYSNRWVFGGGTKVEIKRTVAAPSVFIFPPSDEQLKSGTASVVCLLNNFYPREAKVQWKVDNALQSGNSQESVTEQDSKDSTYSLSSTLTLSKADYEKHKVYACEVTHQGLSSPVTKSFNRGEC
notes: human IgG1, kappa; also called Kappa Lc8
Usually Kd stands for the constant that tells how readily two partners part at equilibrium. Low values mean higher affinity, high ones lower affinity. A word on the koff: it is the first-order rate constant of dissociation. Read a low koff as slow dissociation. The term kon denotes a measure of how fast the partners come together. A lower kon goes with slow association. As for B1, in experiment [1], the Kd came to 0.493 nM, the koff was 0.000267 s⁻¹ and the kon was found to be 541000 M⁻¹ s⁻¹. Also, in experiment [2], the “Bmax (MFI)” value was determined as 1250 MFI and the Kd was 0.3 nM. In experiment [3], this molecule gave a Kd of 0.338 nM, a koff of 0.000311 s⁻¹ and a kon of 920000 M⁻¹ s⁻¹.

B2: 2037-B10-Lc5 (antibody)
heavy: not shown
light: DTQVTQSPSLSASVGDRVTITCGSSTGAVTSGYYPNWLQQKPGQAPRGLIGGTKFLAPGVPSRFSGSGSGTDFTLTISSLQPEDFATYYCALWYSNRWVFGGGTKVEIKRTVAAPSVFIFPPSDEQLKSGTASVVCLLNNFYPREAKVQWKVDNALQSGNSQESVTEQDSKDSTYSLSSTLTLSKADYEKHKVYACEVTHQGLSSPVTKSFNRGEC
notes: human IgG1, kappa; also called Kappa Lc5; Parent HC + Kappa Lc5
Regarding B2, in experiment [1], the Kd stood at 12.2 nM, the koff is 0.000464 s⁻¹ and the kon was 38200 M⁻¹ s⁻¹. Moreover, in experiment [4], the “HUT78 Bmax” value worked out at 1850 and the Kd was determined as 47 nM. Besides, in experiment [2], the “Bmax (MFI)” value amounted to 1200 MFI and the Kd is 40.7 nM. Also, in experiment [3], the Kd came out at 8.28 nM, the off-rate (koff) was 0.000478 s⁻¹ and the kon is 57700 M⁻¹ s⁻¹.

B3: 2037-B10-Lc2 (antibody)
heavy: not shown
light: DTQVTQSPSLSASVGDRVTITCGSSTGAVTSGYYPNWYQQKPGKAPKLLIGGTKFLAPGVPSRFSGSGSGTDFTLTISSLQPEDFATYYCALWYSNRWVFGGGTKVEIKRTVAAPSVFIFPPSDEQLKSGTASVVCLLNNFYPREAKVQWKVDNALQSGNSQESVTEQDSKDSTYSLSSTLTLSKADYEKHKVYACEVTHQGLSSPVTKSFNRGEC
notes: human IgG1, kappa; also called Kappa Lc2
On to B3, for which, in experiment [1], the binding result was “no binding”. Besides, in experiment [2], the “Bmax (MFI)” value turned out to be 63 MFI and the Kd worked out at 24 nM. The binding result in experiment [3] is reported as “no binding”.

B4: 2037-B10-Lc9 (antibody, V domains shown)
VH: not shown
VL: DTQVTQSPSLSASVGDRVTITCGSSTGAVTSGYYPNWLQQKPGQAPRGLIGGTKFLAPGVPSRFSGSLLGGKAALTISSLQPEDFATYYCALWYSNRWVFGGGTKVEIKR
notes: human IgG1, kappa; also called Kappa Lc9
In experiment [1], B4 registered a Kd of 0.511 nM, a koff of 0.000297 s⁻¹ and a kon of 580000 M⁻¹ s⁻¹. For the same molecule, in experiment [2], the “Bmax (MFI)” value worked out at 1230 MFI and the equilibrium dissociation constant (Kd) amounted to 0.4 nM. In addition, in experiment [3], the affinity, expressed as Kd, was 0.329 nM; the koff came out at 0.00034 s⁻¹; the association rate constant (kon) was found to be 1.03e+06 M⁻¹ s⁻¹.

B5: 2037-B10-Lc7 (antibody)
heavy: not shown
light: DTQVTQSPSLSASVGDRVTITCGSSTGAVTSGYYPNWYQQKPGKAPKLLIGGTKFLAPGVPSRFSGSLSGGKATLTISSLQPEDFATYYCALWYSNRWVFGGGTKVEIKRTVAAPSVFIFPPSDEQLKSGTASVVCLLNNFYPREAKVQWKVDNALQSGNSQESVTEQDSKDSTYSLSSTLTLSKADYEKHKVYACEVTHQGLSSPVTKSFNRGEC
notes: human IgG1, kappa; also called Kappa Lc7
Turning to B5, the binding result in experiment [1] and in experiment [3] was “no binding” in each case. The “Bmax (MFI)” value in experiment [2] was 737 MFI. The molecule also yielded a dissociation constant Kd in experiment [2] of 338 nM.

B6: 2037-B10-Lc10 (antibody, V domains shown)
VH: not shown
VL: DTQVTQSPSLSASVGDRVTITCGSSTGAVTSGYYPNWLQQKPGQAPRGLIGGTKFLAPGVPSRFSGSLLGGKAALTISSLQPEDFAEYYCALWYSNRWVFGGGTKVEIKR
notes: human IgG1, kappa; also called Kappa Lc10
Consider B6, for which, in experiment [1], the affinity, expressed as Kd, was 0.464 nM; the koff worked out at 0.000314 s⁻¹; the kon turned out to be 677000 M⁻¹ s⁻¹. Moreover, in experiment [2], the “Bmax (MFI)” value turned out to be 1240 MFI and binding was characterised by a dissociation constant (Kd) of 0.6 nM. In experiment [3], this molecule had a Kd of 0.371 nM, a koff of 0.000404 s⁻¹ and a kon of 1.09e+06 M⁻¹ s⁻¹.

B7: 2037-B10_Hc-Y61D (antibody, human IgG1, lambda, V domains shown)
VH: EVQLVESGGGLVKPGGSLRLSCAASGFTFNKYAMNWVRQAPGKGLEWVARIRTKYNNYATDYADSVKDRFTISRDDSKNTAYLQMNSLKTEDTAVYYCVRHGNFGNSYISYWAYWGQGTPVTVSS
VL: QTVVTQEPSLTVSPGGTVTLTCGSSTGAVTSGYYPNWLQQKPGQAPRGLIGGTKFLAPGTPARFSGSLLGGKAALTLSGVQPEDEAEYYCALWYSNRWVFGGGTQLTVTG
notes: human IgG1, lambda; also called SRP 2037 Y61D; 2037-B10_VH-Y61D
In experiment [5], B7 yielded a Kd of 1.73 nM, a koff of 0.00123 s⁻¹ and a kon of 709000 M⁻¹ s⁻¹. Moreover, in experiment [6], the Kd turned out to be 1.84 nM, the koff came to 0.000591 s⁻¹ and the kon turned out to be 321000 M⁻¹ s⁻¹. Besides, in experiment [4], the “HUT78 Bmax” value amounted to 804 and the dissociation constant (Kd) turned out to be 18.8 nM. Moreover, in experiment [7], the “Bmax (MFI)” value amounted to 689 MFI and the Kd turned out to be 0.32 nM. Further, in experiment [8], the Kd was found to be 3.42 nM, the koff came out at 0.000379 s⁻¹ and the on-rate (kon) was 111000 M⁻¹ s⁻¹.

B8: 2037-B10-Lc1 (antibody)
heavy: not shown
light: DIQMTQSPSSLSASVGDRVTITCGSSTGAVTSGYYPNWYQQKPGKAPKLLIGGTKFLAPGVPSRFSGSGSGTDFTLTISSLQPEDFATYYCALWYSNRWVFGGGTKVEIKRTVAAPSVFIFPPSDEQLKSGTASVVCLLNNFYPREAKVQWKVDNALQSGNSQESVTEQDSKDSTYSLSSTLTLSKADYEKHKVYACEVTHQGLSSPVTKSFNRGEC
notes: human IgG1, kappa; also called Kappa Lc1
Consider B8, for which the binding result in experiment [1] and in experiment [3] was “no binding” throughout. Moreover, the “Bmax (MFI)” value in experiment [2] is 514 MFI. The dissociation constant Kd in experiment [2] turned out to be 222 nM.

B9: 2037-B10-Lc4 (antibody)
heavy: not shown
light: DIQMTQSPSSLSASVGDRVTITCGSSTGAVTSGYYPNWYQQKPGKAPKLLIGGTKFLAPGVPSRFSGSLSGGKATLTISSLQPEDFATYYCALWYSNRWVFGGGTKVEIKRTVAAPSVFIFPPSDEQLKSGTASVVCLLNNFYPREAKVQWKVDNALQSGNSQESVTEQDSKDSTYSLSSTLTLSKADYEKHKVYACEVTHQGLSSPVTKSFNRGEC
notes: human IgG1, kappa; also called Kappa Lc4
Take B9: the binding result in experiment [1] was “no binding”. Besides, in experiment [2], the “Bmax (MFI)” value amounted to 130 MFI and the Kd came out at 30.4 nM. Besides, the binding result in experiment [3] is “no binding”.

B10: 2037-B10-Lc3 (antibody)
heavy: not shown
light: DIQMTQSPSSLSASVGDRVTITCGSSTGAVTSGYYPNWLQQKPGQAPRGLIGGTKFLAPGVPSRFSGSGSGTDFTLTISSLQPEDFATYYCALWYSNRWVFGGGTKVEIKRTVAAPSVFIFPPSDEQLKSGTASVVCLLNNFYPREAKVQWKVDNALQSGNSQESVTEQDSKDSTYSLSSTLTLSKADYEKHKVYACEVTHQGLSSPVTKSFNRGEC
notes: human IgG1, kappa; also called Kappa Lc3
B10: in experiment [1], the Kd was found to be 7.15 nM, the dissociation rate constant (koff) amounted to 0.000393 s⁻¹ and the kon was found to be 55000 M⁻¹ s⁻¹. In addition, in experiment [2], the “Bmax (MFI)” value worked out at 1040 MFI and the Kd was 62.6 nM. In experiment [3], this molecule gave a Kd of 13.6 nM, a koff of 0.00069 s⁻¹ and an association rate constant (kon) of 50600 M⁻¹ s⁻¹.
